Assay results taken from the DeepSol protein solubility set.

Assay: soluble on expression in E. coli; label from the status in PepcDB or PDB records

Sequence | soluble on expression in E. coli
MGSDKIHHHHHHERHEFIIEVVGNAYLDDVMDWYQPSYGDYLVQAHPVIVLYYPDESYAYYERATFYEQYNDFVAAAGVIVDTADLKNDLGRIWNSYYPIYDVDVWWQADREEWQARVKGLTRDVNITTFFVVTFNGRDNYCEVVDIKDEGEIYLDNNGVYHLGPLSGVDGFAAFVQENPSRLTLESNTKILGAEVRWIK | not soluble
MNIKKHLPWLGALLPIINAQADTNPNVVIIYIDDMGIGDIGCYGGKFVATPNIDKLAQDGLLFNQYYSSAPVSSPSRCGLTTGLFPIEVGINTFLNDKASNKRCEQRNYLDDKLPSMARAFQNAGYATGHIGKWHMGGGRDVHNAPSIKNYGFDEYLSTYESPDPDPAITASKWIWCDNDSIKRWKRTEYFVDKSIDFIKRHKDSPFFLNLWPDDMHTPWVPEFKQKERKSWETKEAFSPVLGEMDKQIGRFIKALDDMGLSENTIIIFTSDNGPAPSFKAVRSAYLRGTKNSLYEGGIRMPFIVKYPKKIKPGRVNNSSVLCAVDLYPTLCSVAGIKTEKNYKGDGQNYAKVLLGKSEAKRKTDLMWDFGRNKHFGFPGNPYDRSPHLAIRSGKWKLLVNGDGSDAQLYDMELDKFEKNNIAGEHPELVAKLSKKVCEWYAQNKDKGLQTDLLEHHHHHH | soluble
MGSDKIHHHHHHMVVSIGVFDGVHIGHQKVLRTMKEIAFFRKDDSLIYTISYPPEYFLPDFPGLLMTVESRVEMLSRYARTVVLDFFRIKDLTPEGFVERYLSGVSAVVVGRDFRFGKNASGNASFLRKKGVEVYEIEDVVVQGKRVSSSLIRNLVQEGRVEEIPAYLGRYFEIEGIVHKDREFGRKLGFPTANIDRGNEKLVDLKRGVYLVRVHLPDGKKKFGVMNVGFRPTVGDARNVKYEVYILDFEGDLYGQRLKLEVLKFMRDEKKFDSIEELKAAIDQDVKSARNMIDDIINSKFEKEG | not soluble
MSVSPFFNPKRDSQLGEMMRDMGGMQRRLMPISGTFNPMTDDSEIMNSNDKFAVNLNVSNFKPEELKVNLEGRQLSIQGEHDVENEHGASRKSFSRMILLPEDVDITSVATNLSNDGKLCIEAPKLEGVCGRSVPVKEASMDHHHIE | not soluble
MGSSHHHHHHSSGLVPRGSHMNVKKFPEGFLWGAATSSYQIEGAWNEDGKGESIWDRFTRIPGKIKNGDSGDVACDHYHRYEQDLDLMRQLGLKTYRFSIAWARIQPDSSRQINQRGLDFYRRLVEGLHKRDILPMATLYHWDLPQWVEDEGGWLSRESASRFAEYTHALVAALGDQIPLWVTHNEPMVTVWAGYHMGLFAPGLKDPTLGGRVAHHLLLSHGQALQAFRALSPAGSQMGITLNFNTIYPVSAEPADVEAARRMHSFQNELFLEPLIRGQYNQATLMAYPNLPEFIAPEDMQTISAPIDFLGVNYYNPMRVKSSPQPPGIEVVQVESPVTAMGWEIAPEGLYDLLMGITRTYGKLPIYITENGAAFDDQPDQSGQVNDPQRVGYFQGHIGAARRALADGVDLRGYYAWSLLDNFEWAEGYSKRFGIIYVDFETQQRTLKQSAQWYRDVIANNGLED | soluble
MNGKQRMVEQSKQWLSEALIELMKTKDYQDISITEIAQKAELSRKTFYHSFKNKEAVINYLCDQLFDQYFQKLVKQEPQIGEAMLNTTFDIFLNFWWQQRSIIRLLIQQGLFDHMNEIWQKKAVPRYNQFAAPWHVKGTPKQVAYVMAFQLGGFTNILRLWLGQDSPEAPEKIKDLMLLAARQLADSLNPQKN | not soluble
AELPPEFAAQLRKIGDKVYCTWSAPDM | soluble
MNEQAILQSAEAWVKKQLMDEYSGHDWYHIRRVTLMAKAIGEQEKVDVFVVQIAALFHDLIDDKLVDDPETAKQQLIDWMEAAGVPSQKIDHTMDIINTISFKGGHGQSLATREAMVVQDADRLDALGAIGIARTFAYSGNKGQPIYDPELPIRETMTVEEYRHGKSTAINHFYEKLFKLKDLMNTETGKQLAKERHVFMEQFIERFLSEWNGDMLEHHHHHH | soluble
MKYVFIENHRAEFSIKAMCRVLRVARSGWYVWLRRRHQMSLRQQFRLTCDAAVHKAFFEAKQRYGAPRLADELPEFNIKTIAASLRRQGLRAKASRKFSPVSYRAHGLPVLENLLEQDFSASGPKPEVGG | not soluble
MGSDKIHHHHHHMETFHLTRNEMATLLLSLRGWNTKKPLGILQEAWAKSHKKDIESGQSVTAFITTALSPIFEKLIKIDDTDVGFSLNEIVALGNQIENTSFSVTAMQNWVKRDIKEMIGSPQKGKKYSIEQAALLFIVEDLKTALDFESIRKLLRLIVNDPADRSDDLINPVHLYGAYSSLFEELNQGNCLQLNATDTIHTIENIVKERADKIASKFDQVNNEQREAIRNAIIIATLSVHTAYVQMLAKRYVTATLFLQNLDVKP | not soluble
MGSDKIHHHHHHMSEKRQPWVQDLLWRLEALGFDLFIGAVRMMGVDRASDFGGWLGRTFGPMSGAHKVASRNLKLAFPDKDAAWHETILREQWDGLGRSFAEFPLMDKILPSTGRVEVVGKERLVEIAENRIPVVFVSGHLSNWEVMPAAIVDSGVICEMTYRAANNPYVDKRIKESRFRYGVRLFAPKGGDGARELLEGMKQGKSVALMNDQKFNSGVAAPFFGHLAHTAPGPTRLAIRFGTVLQPMSVQRLKGARFRAVVHDPIVPPKTGDRTADIEAGVRMINAFMEDRIRERPAEWFWVHRRWPNEVYAALAERERAAESSS | not soluble
MDTVVMSWWDFGHLFAVAADRPVTFDGGSQNTPRAYWIGKALTTSNETLSRGILTMLSTSGDLAYETLDNYTDDSGKTAEILTATLGLPREEARAVMTGRYGLSDKEADSVLRYSHPAKPKPFVLVLSSDMLGKAPWWTYFGTWDFKKKTGSRLEHHHHHH | not soluble
MGSDKIHHHHHHASEEDPWESINRPIFTFNDTLDTYALKPLAQGYQKVTPNFVQDGVHNFFNNLGDVKNLANNLLQAKFHNAGVDTSRLLFNSTFGLAGLIDVATPMGLQRNDEDFGQTLGYWGVGSGPYVMLPFLGPSTLRDAPAKIPDIYVSPYHYMDDVRARNVMFGINTVDTRANLLKSEKLISGDKYIFIRNAYLQNREFKVKDGEVEDDF | not soluble
MSRSKKTRRISDIMPARKADKKPALPISNSKKRKPTRYELDVQAREEKKKRKHKGLPTGSRNVITEQKTASAKVKKDPRVGSRKKVPLMVEFVNKPEKGQMIKPVPLEPSNHATKATVSPEVELTQLENNECLNQLLDQLEAGKVLSTQDQQFVDECLDRVHELIIELGIEDDEENNEDLLLRQFETIDINKFK | not soluble
TVPDFSAFAVEVPALKSNDEAIDAQIDKLRERFGELKDTKRKLKTDDFAIIDIEAAIDGEKLEEATTEGMSYQVGAGDLIDGLDTALRGLKAGESAEFTTTLKAGEHEGKEAAVTVTVQQTKERKLPELDEEFVQTASEFDTVEELRESIAEQVAEQAKAEQATAIRDEVLKAALAEATFELPEGVVEDQIHAQLHQLLNQVGGDEAALNAALEAQGTSREQFDADNRKNSEEAVRTQLFLDALAEQEQPEVSQQELTDHILFTAQSYGMDPNQFITQLQQSGQIGNLFSDVRRGKALAAAICRVSVKDDEGKAVDPSEYFGEEEESAEESE | not soluble
MTLSSAGGSRSHRHNGGHSERDVEIRILKDKVRSLTKEKISLQKELEYYKNEITKLLSPPYIEAVVLEVIDDNRVVVKSSTGPNLIVNVAAGVDARSLKPGAIVALNNRGSTIVDVLPGRYDPLVKAMEVEERPKVFFKDVGGLEEQIREIYEAVVLPIKNPHLFRELGIDPPKGVLLHGPPGTGKTLLAKAVAGETEATFIRVVGSELVNKFIGEGARLVREIFRLAREKAPSILFIDEIDAIASKRVDIGTSGDREVQRTMLQLLAELDGFDPLDNVKVIAATNRLDLIDPAVLRPGRFDRIIEVPLPSLRGRLEILGIHTRKAKMAPDVDLEAIAKLTEGFSGADLKAVVVEAGYNAIRRGSRVITMDDMIKAVEKVKAALDKRGGGDPFIRAQQKSGDDTIATVI | soluble
GLNMYVAGKATLNYLFERYMDTKYNLRENTKVNYKYMYDNYVRNTIGKRLIADIKYSDIVYFYKSLITEKGLELNTVDTIHTVIHPVFSMAVRDDVIRKNPASGVLADIKKESGKNKGIRHALTIEQQRVFMKYMIEEEQFNHWIPIFTILLGTGCRVGEFIGLRWEDVDFKQKVISINHSIAYVCYGKEDGRKSHYAISLPKTEAGIRYIPMTDEVYDVFKAEYYRQQENGFSQFSIEGMSGFIFTNRCGRIYNQQTLNKGLKRISENYNQKELIDA | not soluble
